Biological target: T1, CD3 epsilon homodimer protein (UniProt P07766 23-126)
T1 construct: also called CD3 (CD3 epsilon)
Assay: SPR Biacore T200, CD3 epsilon homodimer on chip, antibody as analyte;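 note: homodimer amine-coupled to a CM4 sensor chip, run at 25 °C in HBS-EP+ buffer, with kinetic parameters derived in Biacore T200 Evaluation Software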

T1 sequence (P07766 23-126): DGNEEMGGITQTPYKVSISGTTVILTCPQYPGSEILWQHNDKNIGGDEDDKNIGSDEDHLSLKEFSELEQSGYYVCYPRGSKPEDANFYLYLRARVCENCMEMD

KD ratio (KD of CE115HA000 / KD of altered form)	Binder
119000	CE115HA000 H chain altered form H35Y (antibody, human IgG1, kappa, L234A L235A, N297A, name in Kabat numbering, one-arm antibody) heavy: QVQLVESGGGVVQPGRSLRLSCAASGFTFSNAWMYWVRQAPGKGLEWVAQIKAKSNNYATYYAESVKGRFTISRDDSKNSLYLQMNSLKTEDTAVYYCRYVHYGAYYGVDAWGQGTTVTVSSASTKGPSVFPLAPSSKSTSGGTAALGCLVKDYFPEPVTVSWNSGALTSGVHTFPAVLQSSGLYSLSSVVTVPSSSLGTQTYICNVNHKPSNTKVDKKVEPKSCDKTHTCPPCPAPEAAGGPSVFLFPPKPKDTLMISRTPEVTCVVVDVSHEDPEVKFNWYVDGVEVHNAKTKPREEQYASTYRVVSVLTVLHQDWLNGKEYKCKVSNKALPAPIEKTISKAKGQPREPQVYTLPPSRCELTKNQVSLSCAVKGFYPSDIAVEWESNGQPENNYKTTPPVLDSDGSFFLVSKLTVDKSRWQQGNVFSCSVMHEALHNHYTQKSLSLSPDYKDDDDK EPKSSDKTHTCPPCPAPELLGGPSVFLFPPKPKDTLMISRTPEVTCVVVDVSHEDPEVKFNWYVDGVEVHNAKTKPREEQYNSTYRVVSVLTVLHQDWLNGKEYKCKVSNKALPAPIEKTISKAKGQPREPQVCTLPPSRDELTKNQVSLWCLVKGFYPSDIAVEWESNGQPENNYKTTPPVLDSDGSFFLYSKLTVDKSRWQQGNVFSCSVMHEALHNRYTQKSLSLSP light: DIVMTQSPLSLPVTPGEPASISCRSSQSLVHSNRNTYLHWYQQKPGQAPRLLIYKVSNRFSGVPDRFSGSGSGTDFTLKISRVEAEDVGVYYCGQGTQVPYTFGQGTKLEIKRTVAAPSVFIFPPSDEQLKSGTASVVCLLNNFYPREAKVQWKVDNALQSGNSQESVTEQDSKDSTYSLSSTLTLSKADYEKHKVYACEVTHQGLSSPVTKSFNRGEC
0.84	CE115HA000 H chain altered form I51E (antibody, human IgG1, kappa, L234A L235A, N297A, name in Kabat numbering, one-arm antibody) heavy: QVQLVESGGGVVQPGRSLRLSCAASGFTFSNAWMHWVRQAPGKGLEWVAQEKAKSNNYATYYAESVKGRFTISRDDSKNSLYLQMNSLKTEDTAVYYCRYVHYGAYYGVDAWGQGTTVTVSSASTKGPSVFPLAPSSKSTSGGTAALGCLVKDYFPEPVTVSWNSGALTSGVHTFPAVLQSSGLYSLSSVVTVPSSSLGTQTYICNVNHKPSNTKVDKKVEPKSCDKTHTCPPCPAPEAAGGPSVFLFPPKPKDTLMISRTPEVTCVVVDVSHEDPEVKFNWYVDGVEVHNAKTKPREEQYASTYRVVSVLTVLHQDWLNGKEYKCKVSNKALPAPIEKTISKAKGQPREPQVYTLPPSRCELTKNQVSLSCAVKGFYPSDIAVEWESNGQPENNYKTTPPVLDSDGSFFLVSKLTVDKSRWQQGNVFSCSVMHEALHNHYTQKSLSLSPDYKDDDDK EPKSSDKTHTCPPCPAPELLGGPSVFLFPPKPKDTLMISRTPEVTCVVVDVSHEDPEVKFNWYVDGVEVHNAKTKPREEQYNSTYRVVSVLTVLHQDWLNGKEYKCKVSNKALPAPIEKTISKAKGQPREPQVCTLPPSRDELTKNQVSLWCLVKGFYPSDIAVEWESNGQPENNYKTTPPVLDSDGSFFLYSKLTVDKSRWQQGNVFSCSVMHEALHNRYTQKSLSLSP light: DIVMTQSPLSLPVTPGEPASISCRSSQSLVHSNRNTYLHWYQQKPGQAPRLLIYKVSNRFSGVPDRFSGSGSGTDFTLKISRVEAEDVGVYYCGQGTQVPYTFGQGTKLEIKRTVAAPSVFIFPPSDEQLKSGTASVVCLLNNFYPREAKVQWKVDNALQSGNSQESVTEQDSKDSTYSLSSTLTLSKADYEKHKVYACEVTHQGLSSPVTKSFNRGEC
0.88	CE115HA000 H chain altered form K43E (antibody, human IgG1, kappa, L234A L235A, N297A, name in Kabat numbering, one-arm antibody) heavy: QVQLVESGGGVVQPGRSLRLSCAASGFTFSNAWMHWVRQAPGEGLEWVAQIKAKSNNYATYYAESVKGRFTISRDDSKNSLYLQMNSLKTEDTAVYYCRYVHYGAYYGVDAWGQGTTVTVSSASTKGPSVFPLAPSSKSTSGGTAALGCLVKDYFPEPVTVSWNSGALTSGVHTFPAVLQSSGLYSLSSVVTVPSSSLGTQTYICNVNHKPSNTKVDKKVEPKSCDKTHTCPPCPAPEAAGGPSVFLFPPKPKDTLMISRTPEVTCVVVDVSHEDPEVKFNWYVDGVEVHNAKTKPREEQYASTYRVVSVLTVLHQDWLNGKEYKCKVSNKALPAPIEKTISKAKGQPREPQVYTLPPSRCELTKNQVSLSCAVKGFYPSDIAVEWESNGQPENNYKTTPPVLDSDGSFFLVSKLTVDKSRWQQGNVFSCSVMHEALHNHYTQKSLSLSPDYKDDDDK EPKSSDKTHTCPPCPAPELLGGPSVFLFPPKPKDTLMISRTPEVTCVVVDVSHEDPEVKFNWYVDGVEVHNAKTKPREEQYNSTYRVVSVLTVLHQDWLNGKEYKCKVSNKALPAPIEKTISKAKGQPREPQVCTLPPSRDELTKNQVSLWCLVKGFYPSDIAVEWESNGQPENNYKTTPPVLDSDGSFFLYSKLTVDKSRWQQGNVFSCSVMHEALHNRYTQKSLSLSP light: DIVMTQSPLSLPVTPGEPASISCRSSQSLVHSNRNTYLHWYQQKPGQAPRLLIYKVSNRFSGVPDRFSGSGSGTDFTLKISRVEAEDVGVYYCGQGTQVPYTFGQGTKLEIKRTVAAPSVFIFPPSDEQLKSGTASVVCLLNNFYPREAKVQWKVDNALQSGNSQESVTEQDSKDSTYSLSSTLTLSKADYEKHKVYACEVTHQGLSSPVTKSFNRGEC
6.37	CE115HA000 H chain altered form I51D (antibody, human IgG1, kappa, L234A L235A, N297A, name in Kabat numbering, one-arm antibody) heavy: QVQLVESGGGVVQPGRSLRLSCAASGFTFSNAWMHWVRQAPGKGLEWVAQDKAKSNNYATYYAESVKGRFTISRDDSKNSLYLQMNSLKTEDTAVYYCRYVHYGAYYGVDAWGQGTTVTVSSASTKGPSVFPLAPSSKSTSGGTAALGCLVKDYFPEPVTVSWNSGALTSGVHTFPAVLQSSGLYSLSSVVTVPSSSLGTQTYICNVNHKPSNTKVDKKVEPKSCDKTHTCPPCPAPEAAGGPSVFLFPPKPKDTLMISRTPEVTCVVVDVSHEDPEVKFNWYVDGVEVHNAKTKPREEQYASTYRVVSVLTVLHQDWLNGKEYKCKVSNKALPAPIEKTISKAKGQPREPQVYTLPPSRCELTKNQVSLSCAVKGFYPSDIAVEWESNGQPENNYKTTPPVLDSDGSFFLVSKLTVDKSRWQQGNVFSCSVMHEALHNHYTQKSLSLSPDYKDDDDK EPKSSDKTHTCPPCPAPELLGGPSVFLFPPKPKDTLMISRTPEVTCVVVDVSHEDPEVKFNWYVDGVEVHNAKTKPREEQYNSTYRVVSVLTVLHQDWLNGKEYKCKVSNKALPAPIEKTISKAKGQPREPQVCTLPPSRDELTKNQVSLWCLVKGFYPSDIAVEWESNGQPENNYKTTPPVLDSDGSFFLYSKLTVDKSRWQQGNVFSCSVMHEALHNRYTQKSLSLSP light: DIVMTQSPLSLPVTPGEPASISCRSSQSLVHSNRNTYLHWYQQKPGQAPRLLIYKVSNRFSGVPDRFSGSGSGTDFTLKISRVEAEDVGVYYCGQGTQVPYTFGQGTKLEIKRTVAAPSVFIFPPSDEQLKSGTASVVCLLNNFYPREAKVQWKVDNALQSGNSQESVTEQDSKDSTYSLSSTLTLSKADYEKHKVYACEVTHQGLSSPVTKSFNRGEC

Source: US20240270846A1 (published 2024)
